The series deals with the molecule itself. Kind of series: MALDI-ToF MS.

B1: Superoxide dismutase 1 (SOD1) from bovine erythrocytes (enzyme)
chain: not shown
Consider B1, for which the binding result is “binds”.

Source of the values: paper PMC3570234 (Molecular pharmaceutics, 2012).
